Laboratory results reported in the supplement of paper PMC10201428.
± gives the standard deviation of the averaged measurements.

Key:
[1] = tested on: VchCAST RNA-guided transposition machinery (E. coli BL21(DE3) host, lacZ target); experiment: relative integration efficiency (T-RL orientation) vs wild-type transposon end (log2 (normalized fold change)); transposon end mutated: right end (5 bp flank + 75 bp right end); higher = more efficient transposition
Summary of the method: (§1)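 Each barcoded pool, 1549 left-end or 1849 right-end transposon variants in a pUC57 mini-transposon donor, went into E. coli BL21(DE3) with a T7-driven effector plasmid (CRISPR array, tniQ-cas8-cas7-cas6, tnsA-tnsB-tnsC). Plates contained 0.1 mM IPTG and were held at 37°C for 18 h. Input plasmids and genomic integration junctions were PCR-amplified and read by Illumina sequencing, with two biological output replicates and four reference barcodes. Relative integration efficiency is the fold change of output over input barcode abundance, normalised to the reference barcodes and log-transformed.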

[2] = tested on: VchCAST RNA-guided transposition machinery (E. coli BL21(DE3) host, lacZ target); experiment: relative integration efficiency (T-LR orientation) vs wild-type transposon end (log2 (normalized fold change)); transposon end mutated: right end (5 bp flank + 75 bp right end); higher = more efficient transposition
Summary of the method: as §1

ACATTTGTTGATACCACCATCAAATGATAATTCCACCCCTACATTGATAATTATCACACCCAATTTAACTATAACGCTCTGATCATAGTCAGACCAACATTGCTACGACCCGTATTCGCACCGACAC
relative integration efficiency (log2) [1]: -5.99 ± 0.51
relative integration efficiency (log2) [2]: -2.15 ± 0.19

ACATTTGTTGATACCACCATCAAATGGTAATTACACCCATAAATTGATAATTATCACACCCAATTTAACTATAACGCTCTGATCATAGTCAGACCAACATTGCTACGACCCGTATTCGCACCGACAC
relative integration efficiency (log2) [1]: -2.79 ± 0.21
relative integration efficiency (log2) [2]: 0.203 ± 0.17

ACATTTGTTGATACCACCATCAAATGGTAATTACACCCATACATTGATAATTATCACACCCAATTTAACTATAACGCTCTGATCATAGTCAGACCAACATTGCTACGACCCGTATTCGCACCGACAC
relative integration efficiency (log2) [1]: -5.6 ± 0.15
relative integration efficiency (log2) [2]: -2.98 ± 0.51

ACATTTGTTGATACCACCATCAAATGGTAATTACACCCCTAAATTGATAATTATCACACCCAATTTAACTATAACGCTCTGATCATAGTCAGACCAACATTGCTACGACCCGTATTCGCACCGACAC
relative integration efficiency (log2) [1]: -6.57 ± 0.25
relative integration efficiency (log2) [2]: -3.8 ± 0.81

ACATTTGTTGATACCACCATCAAATGGTAATTACACCCCTACATTGATAATTATCACACCCAATTTAACTATAACGCTCTGATCATAGTCAGACCAACATTGCTACGACCCGTATTCGCACCGACAC
relative integration efficiency (log2) [1]: -3.15 ± 0.8
relative integration efficiency (log2) [2]: 0.00776 ± 0.29

ACATTTGTTGATACCACCATCAAATGGTAATTCCACCCATAAATTGATAATTATCACACCCAATTTAACTATAACGCTCTGATCATAGTCAGACCAACATTGCTACGACCCGTATTCGCACCGACAC
relative integration efficiency (log2) [1]: -3.19 ± 0.23
relative integration efficiency (log2) [2]: -0.205 ± 0.08

ACATTTGTTGATACCACCATCAAATGGTAATTCCACCCATACATTGATAATTATCACACCCAATTTAACTATAACGCTCTGATCATAGTCAGACCAACATTGCTACGACCCGTATTCGCACCGACAC
relative integration efficiency (log2) [1]: -6.61 ± 0.18
relative integration efficiency (log2) [2]: -4.54 ± 0.41

ACATTTGTTGATACCACCATCAAATGGTAATTCCACCCCTAAATTGATAATTATCACACCCAATTTAACTATAACGCTCTGATCATAGTCAGACCAACATTGCTACGACCCGTATTCGCACCGACAC
relative integration efficiency (log2) [1]: -6.33 ± 0.84
relative integration efficiency (log2) [2]: -4 ± 0.18

ACATTTGTTGATACCACCATCAAATGGTAATTCCACCCCTACATTGATAATTATCACACCCAATTTAACTATAACGCTCTGATCATAGTCAGACCAACATTGCTACGACCCGTATTCGCACCGACAC
relative integration efficiency (log2) [1]: -6.99 ± 0.2
relative integration efficiency (log2) [2]: -3.726 ± 0.034

ACATTTGTTGATACCCAAATAAAATGATAATTACACCCATAAATTGATAATTATCACACCCATAAATTGATATTGCCTCTGATCATAGTCAGACCAACATTGCTACGACCCGTATTCGCACCGACAC
relative integration efficiency (log2) [1]: -2.59 ± 0.17
relative integration efficiency (log2) [2]: -2.7 ± 0.25

ACATTTGTTGATACCCCCATAAAATGATAATTACACCCATAAATTGATAATTATCACACCCATAAATTGATATTGCCTCTGATCATAGTCAGACCAACATTGCTACGACCCGTATTCGCACCGACAC
relative integration efficiency (log2) [1]: -0.828 ± 0.081
relative integration efficiency (log2) [2]: -0.879 ± 0.24

ACATTTGTTGATACTACCATAAAATGATAATTACTCCCATAAATTGATAATTATCACTCCCATAAATTGATATTGCCTCTGATCATAGTCAGACCAACATTGCTACGACCCGTATTCGCACCGACAC
relative integration efficiency (log2) [1]: -0.805 ± 0.022
relative integration efficiency (log2) [2]: -0.0376 ± 0.31

ACATTTGTTGATACTACCATATAATGATAATAACACCCATAAAATGATAATTATCACACCCAATTTAACTATAACGCTCTGATCATAGTCAGACCAACATTGCTACGACCCGTATTCGCACCGACAC
relative integration efficiency (log2) [1]: -1.45 ± 0.32
relative integration efficiency (log2) [2]: 1.9 ± 0.11

ACATTTGTTGATACTACCATTTAATGATAATAACACCCATAAAATGATAATTATCACACCCAATTTAACTATAACGCTCTGATCATAGTCAGACCAACATTGCTACGACCCGTATTCGCACCGACAC
relative integration efficiency (log2) [1]: -1.01 ± 0.18
relative integration efficiency (log2) [2]: 1.8 ± 0.17

ACATTTGTTGATACTTCCATAAAATGATAATTACACCCATAAATTGATAATTATCACACCCATAAATTGATATTGCCTCTGATCATAGTCAGACCAACATTGCTACGACCCGTATTCGCACCGACAC
relative integration efficiency (log2) [1]: -0.637 ± 0.052
relative integration efficiency (log2) [2]: -0.525 ± 0.042

ACATTTGTTGATACTTGGATAAAATGATAATTACACCCATAAATTGATAATTATCACACCCATAAATTGATATTGCCTCTGATCATAGTCAGACCAACATTGCTACGACCCGTATTCGCACCGACAC
relative integration efficiency (log2) [1]: -0.966 ± 0.23
relative integration efficiency (log2) [2]: -1.07 ± 0.2

ACATTTGTTGATAGAACCATAAAATGATAATTAGACCCATAAATTGATAATTATCAGACCCATAAATTGATATTGCCTCTGATCATAGTCAGACCAACATTGCTACGACCCGTATTCGCACCGACAC
relative integration efficiency (log2) [1]: -1.64 ± 0.2
relative integration efficiency (log2) [2]: -0.628 ± 0.11

ACATTTGTTGATAGAACCATATAATGATAATAACACCCATAAAATGATAATTATCACACCCAATTTAACTATAACGCTCTGATCATAGTCAGACCAACATTGCTACGACCCGTATTCGCACCGACAC
relative integration efficiency (log2) [1]: -1.72 ± 0.33
relative integration efficiency (log2) [2]: 1.28 ± 0.069

ACATTTGTTGATAGAACCATTTAATGATAATAACACCCATAAAATGATAATTATCACACCCAATTTAACTATAACGCTCTGATCATAGTCAGACCAACATTGCTACGACCCGTATTCGCACCGACAC
relative integration efficiency (log2) [1]: -2.12 ± 0.42
relative integration efficiency (log2) [2]: 0.598 ± 0.17

ACATTTGTTGATAGTACCATAAAATGATAATTACACCCATAAATTGATAATTATCACACCCATAAATTGATATTGCCTCTGATCATAGTCAGACCAACATTGCTACGACCCGTATTCGCACCGACAC
relative integration efficiency (log2) [1]: -0.367 ± 0.064
relative integration efficiency (log2) [2]: -1.23 ± 0.17

ACATTTGTTGATAGTTGCATAAAATGATAATTACACCCATAAATTGATAATTATCACACCCATAAATTGATATTGCCTCTGATCATAGTCAGACCAACATTGCTACGACCCGTATTCGCACCGACAC
relative integration efficiency (log2) [1]: -1.07 ± 0.13
relative integration efficiency (log2) [2]: -1.37 ± 0.15

ACATTTGTTGATAGTTGGTATTTTACTATTAATCACCCATAAATTGATAATTATCAGTGGGTATTTAACTATAACGCTCTGATCATAGTCAGACCAACATTGCTACGACCCGTATTCGCACCGACAC
relative integration efficiency (log2) [1]: -5.71 ± 0.79
relative integration efficiency (log2) [2]: -4.49 ± 1.4

ACATTTGTTGATAGTTGGTATTTTACTATTAATGTGGGTATTTAACTATTAATTCACACCCATAAATTGATATTGCCTCTGATCATAGTCAGACCAACATTGCTACGACCCGTATTCGCACCGACAC
relative integration efficiency (log2) [1]: -6.222 ± 0.043
relative integration efficiency (log2) [2]: -3.485 ± 0.034

ACATTTGTTGATAGTTGGTATTTTACTATTAATGTGGGTATTTAACTATTAATTCAGTGGGTATTTAACTATAACGCTCTGATCATAGTCAGACCAACATTGCTACGACCCGTATTCGCACCGACAC
relative integration efficiency (log2) [1]: -6.63 ± 0.31
relative integration efficiency (log2) [2]: < -10

ACATTTGTTGATATAATTATCATTTTATGGTTGCAACCATAAAATGATAATTATCACAACCATAAAATGATAATTACTCTGATCATAGTCAGACCAACATTGCTACGACCCGTATTCGCACCGACAC
relative integration efficiency (log2) [1]: -3.54 ± 0.15
relative integration efficiency (log2) [2]: -4.32 ± 2.7

ACATTTGTTGATATAATTATCATTTTATGGTTGCAACCATAAAATGATAATTATGATAATTATCATTTTATGGTTGCTCTGATCATAGTCAGACCAACATTGCTACGACCCGTATTCGCACCGACAC
relative integration efficiency (log2) [1]: -2.97 ± 0.69
relative integration efficiency (log2) [2]: -4.33 ± 0.53

ACATTTGTTGATATAATTATCATTTTATGGTTGTAATTATCATTTTATGGTTGTCATAATTATCATTTTATGGTTGCTCTGATCATAGTCAGACCAACATTGCTACGACCCGTATTCGCACCGACAC
relative integration efficiency (log2) [1]: -6.26 ± 0.22
relative integration efficiency (log2) [2]: -6.39 ± 2.5

ACATTTGTTGATATCAACCATAAAATGATAATTACACCCATAAATTGATAATTATCACACCCATAAATTGATATTGCCTCTGATCATAGTCAGACCAACATTGCTACGACCCGTATTCGCACCGACA
relative integration efficiency (log2) [1]: -0.0259 ± 0.16
relative integration efficiency (log2) [2]: -1.376 ± 0.0096

ACATTTGTTGATATGCAACCATAAAATGATAATTACACCCATAAATTGATAATTATCACACCCATAAATTGATATTGCCTCTGATCATAGTCAGACCAACATTGCTACGACCCGTATTCGCACCGAC
relative integration efficiency (log2) [1]: -6.537 ± 0.019
relative integration efficiency (log2) [2]: -7.72 ± 1.2

ACATTTGTTGATATGTTCAACCATAAAATGATAATTACACCCATAAATTGATAATTATCACACCCATAAATTGATATTGCCTCTGATCATAGTCAGACCAACATTGCTACGACCCGTATTCGCACCG
relative integration efficiency (log2) [1]: -6.34 ± 0.1
relative integration efficiency (log2) [2]: -7.23 ± 1.7

ACATTTGTTGATATGTTGACAACCATAAAATGATAATTACACCCATAAATTGATAATTATCACACCCATAAATTGATATTGCCTCTGATCATAGTCAGACCAACATTGCTACGACCCGTATTCGCAC
relative integration efficiency (log2) [1]: -6.69 ± 0.15
relative integration efficiency (log2) [2]: -5.78 ± 1.9

ACATTTGTTGATATGTTGATACAACCATAAAATGATAATTACACCCATAAATTGATAATTATCACACCCATAAATTGATATTGCCTCTGATCATAGTCAGACCAACATTGCTACGACCCGTATTCGC
relative integration efficiency (log2) [1]: -0.0755 ± 0.058
relative integration efficiency (log2) [2]: 0.26 ± 0.15

ACATTTGTTGATATGTTGATCAACCATAAAATGATAATTACACCCATAAATTGATAATTATCACACCCATAAATTGATATTGCCTCTGATCATAGTCAGACCAACATTGCTACGACCCGTATTCGCA
relative integration efficiency (log2) [1]: -7.04 ± 0.42
relative integration efficiency (log2) [2]: -3.71 ± 0.28

ACATTTGTTGATCAAACCATAAAATGATAATTACACCCATAAATTGATAATTATCACACCCATAAATTGATATTGCCTCTGATCATAGTCAGACCAACATTGCTACGACCCGTATTCGCACCGACAC
relative integration efficiency (log2) [1]: -0.137 ± 0.021
relative integration efficiency (log2) [2]: -0.874 ± 0.45

ACATTTGTTGATCAACCATAAAATGATAATTACACCCATAAATTGATAATTATCACACCCATAAATTGATATTGCCTCTGATCATAGTCAGACCAACATTGCTACGACCCGTATTCGCACCGACACT
relative integration efficiency (log2) [1]: -8.26 ± 0.75
relative integration efficiency (log2) [2]: -4.42 ± 0.092
